Measured values reported in patent US20250289894A1 (MORPHIC THERAPEUTIC, published 2025).
Where a chain is given by its changes, count along the chain named. Where two headings read alike, the source gives them in different places.

T1: Human Leg α7 (human, UniProt Q13683 679-1078)
T1 construct: also called human α7 leg; leg domain of human α7
T1 sequence: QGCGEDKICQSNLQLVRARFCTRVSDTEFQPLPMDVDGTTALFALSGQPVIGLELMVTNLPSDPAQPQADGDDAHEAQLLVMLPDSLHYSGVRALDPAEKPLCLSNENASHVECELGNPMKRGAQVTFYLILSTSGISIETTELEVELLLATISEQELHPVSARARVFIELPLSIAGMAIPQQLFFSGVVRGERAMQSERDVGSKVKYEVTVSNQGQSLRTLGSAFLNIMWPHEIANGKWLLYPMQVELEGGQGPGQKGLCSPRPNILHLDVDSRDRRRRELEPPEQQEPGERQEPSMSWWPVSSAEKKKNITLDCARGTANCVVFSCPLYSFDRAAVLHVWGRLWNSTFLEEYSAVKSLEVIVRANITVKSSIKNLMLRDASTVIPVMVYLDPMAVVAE

T2: Cynomolgus Monkey Leg α7 (cynomolgus monkey, UniProt A0A2K5UNI0 679-1078)
T2 construct: domain: Leg α7
T2 sequence: T1 sequence with T22A, V36A, I180T, R220K, Q246R, T384I

T3: Mouse Leg α7 (mouse, UniProt Q61738 679-1076, limits assumed)
T3 construct: domain: Leg α7
T3 sequence (looked up): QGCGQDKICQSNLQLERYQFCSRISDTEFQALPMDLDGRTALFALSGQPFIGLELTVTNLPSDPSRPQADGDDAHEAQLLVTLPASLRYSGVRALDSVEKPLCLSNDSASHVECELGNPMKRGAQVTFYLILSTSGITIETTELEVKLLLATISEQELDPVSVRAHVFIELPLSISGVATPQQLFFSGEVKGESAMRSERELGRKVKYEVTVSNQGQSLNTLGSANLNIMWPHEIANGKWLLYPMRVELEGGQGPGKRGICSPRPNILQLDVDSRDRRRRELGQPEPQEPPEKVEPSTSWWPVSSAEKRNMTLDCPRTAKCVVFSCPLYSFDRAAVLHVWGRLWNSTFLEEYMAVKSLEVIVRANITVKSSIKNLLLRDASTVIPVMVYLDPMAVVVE

T4: human α7 calf-1 protein (human, UniProt Q13683 688-848)
T4 construct: also called Calf-1 domain
T4 sequence: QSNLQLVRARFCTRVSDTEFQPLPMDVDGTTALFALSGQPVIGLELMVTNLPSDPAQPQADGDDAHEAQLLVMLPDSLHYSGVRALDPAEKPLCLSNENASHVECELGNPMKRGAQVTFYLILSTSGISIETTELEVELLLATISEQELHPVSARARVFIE

B1: Ab2 (antibody, V domains shown)
VH: EVQLVESGGGLVKPGGSLRLSCAASGFTFSSYTMNWVRQAPGKGLEWVSSISIVGNYIYYADSLKGRFTISRDNAKNSLYLQMNSLRAEDTAVYYCARRKWEHDAFDIWGQGTMVTVSS
VL: SSELTQDPAVSVALGQTVRITCQGDSLRSYYASWYQQKPGQAPVLVIYGKNNRPSGIPDRFSGSSSGNTASLTITGAQAEDEADFYCTSRDNSGNHVVFGGGTKLTVL
notes: Human anti-α7β1 antibody (hybridoma, human transgenic mouse); Ab28 and Ab29 are full chains with the same CDRs
B2: Ab8 (antibody, V domains shown)
VH: QVPLQQSGPQLVRPGASVKISCKASGYSFTRYWMHWVKQRPGQGLDWIGKIDPSDSETRLNQEFRDKATLTVDKSSSTAYLQLSSPTSEDSAVYYCARGGYFGEGWYFDVWGAGTTVTVSS
VL: DVVMTQIPLSLPVSLGDQASISCRSSQSLVHRNGNTYLHWYLQKPGQSPKLLIYKVSNRFSGVPDRFSGSGSGTDFTLKISRVEAEDLGVYFCSQSTHVPWTFGGGTKLEIK
notes: Mouse anti-α7β1 antibody (hybridoma, α7 knock-out mouse); also called AbS

Legend:
[1] = target: Human α7β1 Ecto Domain (human) (UniProt Q13683); assay: SPR
[2] = target: T5, Cynomolgus Monkey α7β1 Ecto Domain (cynomolgus monkey, UniProt A0A2K5UNI0 34-1082; H9FU31 21-728); assay: SPR
T5 construct: extracellular domain; Heterodimer

Human Leg α7 = target: T1, Human Leg α7; assay: SPR
Cynomolgus Monkey Leg α7 = target: T2, Cynomolgus Monkey Leg α7; assay: SPR
Mouse Leg α7 = target: T3, Mouse Leg α7; assay: SPR
Human α7β1 (human) [3] = target: Human α7β1 (human) (UniProt Q13683); assay: cell-based or functional assay
[4] = target: Human α7β1 Ecto Domain (human) (UniProt Q13683); assay: cell-based or functional assay
Human α7β1 (human) [5] = target: Human α7β1 (human) (UniProt Q13683); assay: cell-based or functional assay; remark: listed apart in the source
Cynomolgus Monkey α7β1 = Cynomolgus Monkey α7β1 (cynomolgus monkey, UniProt A0A2K5UNI0 34-1181; H9FU31 21-798); assay: cell-based or functional assay
Human α7β1 (human) [6] = target: Human α7β1 (human) (UniProt Q13683); assay: cell binding, DMD myoblast cells, with Mn-BOP
human α7 calf-1 protein = target: T4, human α7 calf-1 protein; assay: binding ELISA, panel 'Human a7 Calf1 vs Ab2'
[7] = target: Mouse α7β1 Ecto Domain (mouse) (UniProt Q61738); assay: SPR
[8] = target: Mouse α7β1 Ecto Domain (mouse) (UniProt Q61738); assay: cell-based or functional assay
Mouse α7β1 [9] = target: T6, Mouse α7β1 (mouse, UniProt Q61738 34-1179; P09055 21-798); assay: cell-based or functional assay
T6 sequence (Q61738 34-1179, chain 1 of 2): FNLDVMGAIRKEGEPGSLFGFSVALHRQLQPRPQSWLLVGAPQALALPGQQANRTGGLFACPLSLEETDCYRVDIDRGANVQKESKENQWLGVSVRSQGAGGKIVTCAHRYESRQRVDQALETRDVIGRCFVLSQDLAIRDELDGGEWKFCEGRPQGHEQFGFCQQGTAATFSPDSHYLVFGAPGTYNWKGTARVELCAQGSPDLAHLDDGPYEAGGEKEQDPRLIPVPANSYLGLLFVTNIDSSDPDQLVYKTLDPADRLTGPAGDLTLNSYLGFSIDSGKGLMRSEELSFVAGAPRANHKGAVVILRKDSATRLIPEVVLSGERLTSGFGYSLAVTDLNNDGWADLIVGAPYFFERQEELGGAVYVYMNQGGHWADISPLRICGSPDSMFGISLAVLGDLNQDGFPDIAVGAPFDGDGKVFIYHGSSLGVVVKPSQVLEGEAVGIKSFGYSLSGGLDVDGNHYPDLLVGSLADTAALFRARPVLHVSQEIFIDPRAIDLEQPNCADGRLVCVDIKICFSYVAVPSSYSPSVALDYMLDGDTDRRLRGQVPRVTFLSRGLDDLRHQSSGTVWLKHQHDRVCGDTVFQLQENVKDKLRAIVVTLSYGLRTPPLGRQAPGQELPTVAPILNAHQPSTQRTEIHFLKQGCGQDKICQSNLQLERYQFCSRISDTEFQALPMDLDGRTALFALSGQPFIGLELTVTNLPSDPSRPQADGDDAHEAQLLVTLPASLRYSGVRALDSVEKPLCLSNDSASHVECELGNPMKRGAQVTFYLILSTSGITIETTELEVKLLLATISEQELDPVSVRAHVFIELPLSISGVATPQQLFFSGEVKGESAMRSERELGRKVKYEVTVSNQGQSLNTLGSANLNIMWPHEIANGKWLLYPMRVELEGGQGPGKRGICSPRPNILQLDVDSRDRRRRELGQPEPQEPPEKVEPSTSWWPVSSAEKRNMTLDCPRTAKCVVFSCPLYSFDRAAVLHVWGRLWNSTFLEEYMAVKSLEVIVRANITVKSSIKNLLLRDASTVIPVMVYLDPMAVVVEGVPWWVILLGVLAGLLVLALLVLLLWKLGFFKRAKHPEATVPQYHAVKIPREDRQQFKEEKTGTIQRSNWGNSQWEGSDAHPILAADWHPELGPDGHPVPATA
T6 sequence (P09055 21-798, chain 2 of 2): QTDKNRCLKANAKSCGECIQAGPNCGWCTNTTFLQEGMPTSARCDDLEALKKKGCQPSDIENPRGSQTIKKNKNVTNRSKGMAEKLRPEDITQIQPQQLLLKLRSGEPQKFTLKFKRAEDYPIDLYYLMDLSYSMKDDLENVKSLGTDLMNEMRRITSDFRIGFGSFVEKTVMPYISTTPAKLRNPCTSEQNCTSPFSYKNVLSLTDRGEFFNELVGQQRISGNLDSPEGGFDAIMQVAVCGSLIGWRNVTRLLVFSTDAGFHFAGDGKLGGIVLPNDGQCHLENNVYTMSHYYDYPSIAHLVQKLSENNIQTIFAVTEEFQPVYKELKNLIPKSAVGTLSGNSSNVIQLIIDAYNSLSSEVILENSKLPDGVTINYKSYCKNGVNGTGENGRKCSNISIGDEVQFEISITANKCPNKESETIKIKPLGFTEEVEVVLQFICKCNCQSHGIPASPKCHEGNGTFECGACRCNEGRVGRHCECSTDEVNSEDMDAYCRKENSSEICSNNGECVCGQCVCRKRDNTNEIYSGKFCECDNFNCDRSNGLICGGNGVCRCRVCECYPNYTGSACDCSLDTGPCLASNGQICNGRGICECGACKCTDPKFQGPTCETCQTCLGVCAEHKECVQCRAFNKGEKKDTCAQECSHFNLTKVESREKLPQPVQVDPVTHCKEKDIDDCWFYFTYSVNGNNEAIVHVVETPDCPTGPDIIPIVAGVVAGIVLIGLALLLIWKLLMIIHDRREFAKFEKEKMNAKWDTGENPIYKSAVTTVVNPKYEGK

Mouse α7β1 [10] = target: T6, Mouse α7β1; assay: cell binding, mouse α7β1 cells, with Mn-BOP

Binder | Kd [1] | Kd [2] | Kd (Human Leg α7) | Kd (Cynomolgus Monkey Leg α7) | EC50 (nM), ECIS, DMD-1 myoblast cells (Human α7β1 (human) [3]) | EC50 (nM), ECIS, DMD-2 myoblast cells (Human α7β1 (human) [3]) | EC50 (nM), ECIS, Non-DMD myoblast cells (Human α7β1 (human) [3]) | Emax (% of RefAb1), ECIS, DMD-1 myoblast cells (Human α7β1 (human) [3]) | Emax (% of RefAb1), ECIS, DMD-2 myoblast cells (Human α7β1 (human) [3]) | Emax (% of RefAb1), ECIS, Non-DMD myoblast cells (Human α7β1 (human) [3]) | Emax (%*), Cell Adhesion Assay (Human α7β1 (human) [3]) | Emax (%*), Solid Phase Assay [4] | EC50 (nM), Cell Adhesion Assay (Cynomolgus Monkey α7β1) | Emax (%*), Cell Adhesion Assay (Cynomolgus Monkey α7β1) | EC50 (Human α7β1 (human) [6]) | also measured
B1 | 5.69 nM | 23 nM | 1.58 nM | 19.4 nM | 14.8 nM | 41.1 nM | 23.3 nM | 289 % of RefAb1 | 240 % of RefAb1 | 124 % of RefAb1 | 122% | 97% | 3.31 nM | 115% | 41.1 nM | binding result (Mouse Leg α7): no binding; EC50 (nM), Cell Adhesion Assay (Human α7β1 (human) [3]): 5.1 nM; EC50 (nM), a7b1 activation assay (Human α7β1 (human) [3]): 2.91 nM; EC50 (ug/mL), a7b1 activation assay (Human α7β1 (human) [3]): 0.44 µg/mL; Emax (% TS2/16), a7b1 activation assay (Human α7β1 (human) [3]): 117 % TS2/16; Emax (F.C.), a7b1 activation assay (Human α7β1 (human) [3]): 2.75 F.C.; EC50 (nM), Solid Phase Assay [4]: 0.4 nM; EC50 (nm), a7b1 activation assay (Human α7β1 (human) [5]): 2.8 nM; EC50 (ug/mL), a7b1 activation assay (Human α7β1 (human) [5]): 0.42 µg/mL; Emax (% TS2/16), a7b1 activation assay (Human α7β1 (human) [5]): 100 % TS2/16; Emax (F.C.), a7b1 activation assay (Human α7β1 (human) [5]): 2.09 F.C.; binding result (human α7 calf-1 protein): no binding
B2 | 184 nM | 225 nM | 25 nM | 32.3 nM | 10 nM | 32 nM | 41.6 nM | 264 % of RefAb1 | 130 % of RefAb1 | 100 % of RefAb1 | 117% | 89% | 1.69 nM | 102% | 32.6 nM | Kd [7]: 5.46 nM; Kd (Mouse Leg α7): 1.42 nM; EC50 (nM), Cell Adhesion Assay (K562 cells expressing α7β1 on laminin-221) (Human α7β1 (human) [3]): 3.94 nM; EC50 (nM), Solid Phase Assay (6xHis α7β1 ectodomain on coated laminin-221) [4]: 0.77 nM; EC50 (nM), Solid Phase Assay [8]: 1.55 nM; Emax (%*), Solid Phase Assay [8]: 148%; EC50 (nM), Cell Adhesion Assay (Mouse α7β1 [9]): 3.82 nM; Emax (%*), Cell Adhesion Assay (Mouse α7β1 [9]): 144%; EC50 (Mouse α7β1 [10]): 22.6 nM
